# Data as given in patent US5157106A, “N-terminal deletions of lymphotoxin, their preparation and use” (BASF Aktiengesellschaft, priority 1986, dated 1992).
# B1: LT: lymphotoxin comparison substance, cloned and expressed in E. coli; product was a mixture of lymphotoxin derivatives (protein, UniProt P01374 35-205, looked up)
# Lymphotoxin-alpha: LPGVGLTPSAAQTARQHPKMHLAHSTLKPAAHLIGDPSKQNSLLWRANTDRAFLQDGFSLSNNSLLVPTSGIYFVYSQVVFSGKAYSPKATSSPLYLAHEVQLFSSQYPFHVPLLSSQKMVYPGLQEPWLHSMYHGAAFQLTQGDQLSTHTDGIPHLVLSPSTVFFGAFAL
# B2: interferon-gamma: human recombinant interferon-gamma (protein, UniProt P01579 24-161, looked up)
# Interferon gamma: QDPYVKEAENLKKYFNAGHSDVADNGTLFLGILKNWKEESDRKIMQSQIVSFYFKLFKNFKDDQSIQKSVETIKEDMNVKFFNSNKKKRDDFEKLTNYSVTDLNVQRKAIHELIQVMAELSPAAKTGKRKRSQMLFRG
# Assays:
# [1] = tested on: primary cell cultures and normal cell lines; settings: cited from earlier work
# L929 = assay: In vitro cytotoxic activity towards L929 (crystal violet stain, 48 h); type: cell-based; settings: L929, 48 h; corrected by comparison with the control TNF standard
# Procedure: 11. IN VITRO CYTOTOXIC ACTIVITY OF HUMAN RECOMBINANT LYMPHOTOXIN (LT) AND DELTA 23, DELTA 24 AND DELTA 25 LT MUTANTS TOWARDS THE TNF- AND LYMPHOTOXIN-SENSITIVE CELL LINES L929 AND WEHI-164
# The substance was added the next day in 25 μl of complete culture medium per well. The initial concentration was 10 ng of protein per ml in each case; 2 duplicate titrations were carried out in series. The following controls were also set up on each culture plate: a) only culture medium; b) cells with culture medium but without lymphotoxin; c) a titrated TNF standard of known biological activity. After incubation for a further 48 h under the conditions indicated above, the surviving cells were stained with a solution of crystal violet (15 g of crystal violet, 7 g of NaCl, 646 ml of ethanol, 172.8 ml of 37% formaldehyde made up to 2 1 with H2 O. This entailed the culture medium being drained off and then the cells being stained with 50 μl of the solution at room temperature for 20 min. The culture plates were then washed with water until all the dyestuff which was not cell-bound had been removed. The cell-bound dyestuff was determined by photometry, after addition of 100 μl of measurement solution (50% ethanol, 0.1% acetic acid), at 540 nm using a Titertek Multiscan MCC/340 (Flow Laboratories, Meckenheim). […]
# MG-63 tumor cells = assay: Synergistic cytotoxic activity with recombinant interferon-gamma on tumor cells (72 h, crystal violet); settings: for factor by which the cytotoxic effect induced by interferon-gamma alone is enhanced: 2 ng/ml interferon-gamma with 2 ng/ml lymphotoxin; for enhancement of the cytotoxicity induced by interferon-gamma (synergistic effect): mean of two independent experiments; for sensitivity / growth inhibition of MG-63 by the single substance: substance alone
# Procedure: 2×10^3 cells in the exponential phase of growth were plated out in complete culture medium (RPMI 1640+10% FCS, both from Flow Laboratories, Meckenheim) in each well of a 96-well plate and were incubated overnight at 37° C. and 5% CO2 in an atmosphere saturated with water vapor. Then, maintaining the interferon-gamma (human recombinant) concentrations constant, the lymphotoxin or the lymphotoxin mutants were subjected to serial 5-fold dilution starting from a concentration of 10 ng/ml protein. The final volume was 150 μl in all the culture wells. Pure culture medium or cultivated cells without the addition of IFN-gamma and/or LT or LT mutants were used as controls. The culture plates were incubated for a further 72 h under the conditions indicated above and were then stained using the crystal violet stain as described under
# The synergistic action of lymphotoxins with interferon-gamma was determined as follows:
# a) the antiproliferative activity of interferon-gamma was determined from the optical densities of the samples by the following formula: [formula]
# b) Determination of the cytotoxic activity of the combination of interferon-gamma and lymphotoxin using formula A.
# c) Determination of the synergistic effect of lymphotoxins with interferon-gamma: [formula]
# The figures given in the Table were determined as explained above under 12a to 12c and represent the means of two independent experiments.
# [2] = in vivo studies; cited from earlier work
# Balb/c mice = assay: Determination of acute toxicity, intravenous; type: in vivo
# Procedure: Male Balb/c mice from 4 to 6 weeks of age were used to determine the acute toxicity of the substances under investigation. The animals were randomized (5 animals in each group) and, following a one-week acclimatization period, they received various doses of the test substance (0.25-4.0 mg/kg body weight intravenously, injected into one of the lateral caudal veins). The volume administered was 10 ml/kg body weight; the injection was administered over a period of 10 seconds. The substances had been dissolved in physiological saline solution which contained 0.2% BSA (bovine serum albumin) immediately before the intravenous injection. Animals which received intravenous administration of 10 ml of physiological saline solution per kg of body weight, with 0.2% BSA, acted as controls. […] The following signs were noted: diarrhea, diminished locomotion, piloerection, cyanosis and death; in addition, the body temperature and weight of the animals were determined at regular intervals.
Molecule,cytotoxic activity [1],Activity (one unit = amount which induces 50% lysis of the given number of cells) (L929),factor by which the cytotoxic effect induced by interferon-gamma alone is enhanced (MG-63 tumor cells; first measurement),factor by which the cytotoxic effect induced by interferon-gamma alone is enhanced (MG-63 tumor cells; second measurement),"enhancement of the cytotoxicity induced by interferon-gamma (synergistic effect) (MG-63 tumor cells; IFN-gamma 0.4 ng/ml, lymphotoxin 0.016 ng/ml)","enhancement of the cytotoxicity induced by interferon-gamma (synergistic effect) (MG-63 tumor cells; IFN-gamma 0.4 ng/ml, lymphotoxin 0.08 ng/ml)","enhancement of the cytotoxicity induced by interferon-gamma (synergistic effect) (MG-63 tumor cells; IFN-gamma 0.4 ng/ml, lymphotoxin 0.4 ng/ml)","enhancement of the cytotoxicity induced by interferon-gamma (synergistic effect) (MG-63 tumor cells; IFN-gamma 0.4 ng/ml, lymphotoxin 2 ng/ml)","enhancement of the cytotoxicity induced by interferon-gamma (synergistic effect) (MG-63 tumor cells; IFN-gamma 0.4 ng/ml, lymphotoxin 10 ng/ml)","enhancement of the cytotoxicity induced by interferon-gamma (synergistic effect) (MG-63 tumor cells; IFN-gamma 2.0 ng/ml, lymphotoxin 0.016 ng/ml)","enhancement of the cytotoxicity induced by interferon-gamma (synergistic effect) (MG-63 tumor cells; IFN-gamma 2.0 ng/ml, lymphotoxin 0.08 ng/ml)","enhancement of the cytotoxicity induced by interferon-gamma (synergistic effect) (MG-63 tumor cells; IFN-gamma 2.0 ng/ml, lymphotoxin 0.4 ng/ml)","enhancement of the cytotoxicity induced by interferon-gamma (synergistic effect) (MG-63 tumor cells; IFN-gamma 2.0 ng/ml, lymphotoxin 2 ng/ml)","enhancement of the cytotoxicity induced by interferon-gamma (synergistic effect) (MG-63 tumor cells; IFN-gamma 2.0 ng/ml, lymphotoxin 10 ng/ml)",sensitivity / growth inhibition of MG-63 by the single substance (MG-63 tumor cells),antitumor effect [2],"time at which signs were detectable (as early as) (Balb/c mice; after the injection, especially at higher doses) [h]",severity of observed signs compared between substances (Balb/c mice; intravenous),"signs observed after injection (Balb/c mice; intravenous, 0.25-4.0 mg/kg)","reversibility of signs (Balb/c mice; surviving animals, within the 7-day observation period)"
B1,less or nonexistent,6.1 × 10^7 U/mg protein,1.57,1.41,1.42,1.87,1.75,1.89,2.16,1.15,1.27,1.40,1.49,1.61,not sensitive to lymphotoxin alone,effective antitumor agent,2,most pronounced,"dose- and time-dependent reduction in body temperature and weight and in locomotion, and induced piloerection and diarrhea",completely reversible in the surviving animals
B2,,,,,,,,,,,,,,,growth is inhibited dosedependently,,,,,
